Measurements reported in patent publication US20150355199A1 (ROCHE DIAGNOSTICS OPERATIONS, published 2015).

Columns and labels:
[1] = molecular target: T1, CFHR2-GS-Avi-GS-His8 (human); assay: SPR (BiaCore), antibody captured by rabbit anti-mouse IgG on CM5 chip; n.d. = not detectable
T1 construct: Tagged recombinant protein from HEK293 cells; also called recombinant CFHR2
T1 chain: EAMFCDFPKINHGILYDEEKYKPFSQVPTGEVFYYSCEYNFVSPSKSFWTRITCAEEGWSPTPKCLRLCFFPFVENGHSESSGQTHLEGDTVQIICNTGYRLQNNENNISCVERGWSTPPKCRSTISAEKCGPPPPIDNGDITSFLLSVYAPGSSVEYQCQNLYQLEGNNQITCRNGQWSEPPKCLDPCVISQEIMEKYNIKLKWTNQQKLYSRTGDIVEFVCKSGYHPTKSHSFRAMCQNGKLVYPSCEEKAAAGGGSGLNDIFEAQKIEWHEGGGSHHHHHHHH
Protocol: (§1) The antibodies MAB<CFH/CFHR1>M-L20/3, MAB<CFHR1>M-442127, MAB<CFHR1>M-4.1.3 and MAB<CFHR1>M-5.1.5 were analyzed on the BiaCore. The chip CM5 coated with a rabbit anti-Mouse IgG was used to bind the purified monoclonal mouse antibodies. In the next step native CFH or the recombinant CFHR1, CFHR2, CFHR3, CFHR4B or CFHR5 proteins according to SEQ ID No.: 9 to 13 were added to determine the binding affinities of the different antibodies.

[2] = molecular target: T2, CFHR3-GS-Avi-GS-His8 (human, UniProt Q02985 19-330); assay: as above
T2 construct: Tagged recombinant protein from HEK293 cells; also called recombinant CFHR3
T2 sequence: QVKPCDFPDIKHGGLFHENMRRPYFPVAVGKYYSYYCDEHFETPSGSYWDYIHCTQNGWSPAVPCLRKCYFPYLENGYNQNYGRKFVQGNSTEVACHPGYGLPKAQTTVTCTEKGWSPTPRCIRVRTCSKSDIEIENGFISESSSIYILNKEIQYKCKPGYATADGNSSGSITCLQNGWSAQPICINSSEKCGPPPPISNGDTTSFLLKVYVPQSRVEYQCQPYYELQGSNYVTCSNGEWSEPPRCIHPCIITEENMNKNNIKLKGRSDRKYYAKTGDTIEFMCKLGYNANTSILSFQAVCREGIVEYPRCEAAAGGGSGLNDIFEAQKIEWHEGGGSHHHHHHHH
Protocol: as §1

[3] = molecular target: T3, CFHL1-GS-Avi-GS-His8 (human, UniProt P08603 19-445); assay: as above
T3 construct: also called complement factor H isoform 2
Protocol: as §1

[4] = molecular target: T4, CFHR4-GS-Avi-GS-His8 (CFHR4 Variant B) (human); assay: as above
T4 construct: Tagged recombinant protein from HEK293 cells; also called CFHR4B; recombinant CFHR4B
T4 chain: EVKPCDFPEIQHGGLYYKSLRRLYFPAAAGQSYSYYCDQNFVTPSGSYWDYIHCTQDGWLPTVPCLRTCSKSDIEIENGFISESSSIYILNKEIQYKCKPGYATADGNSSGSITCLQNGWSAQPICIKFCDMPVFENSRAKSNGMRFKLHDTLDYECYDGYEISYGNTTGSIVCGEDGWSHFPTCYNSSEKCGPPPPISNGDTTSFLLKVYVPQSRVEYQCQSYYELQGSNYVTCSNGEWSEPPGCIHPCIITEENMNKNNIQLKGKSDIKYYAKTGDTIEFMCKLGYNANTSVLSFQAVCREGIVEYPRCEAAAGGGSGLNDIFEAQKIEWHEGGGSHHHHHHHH
Protocol: as §1

[5] = molecular target: T5, CFHR5-GS-Avi-GS-His8 (human, UniProt Q9BXR6 19-569); assay: SPR (BiaCore), antibody captured by rabbit anti-mouse IgG on CM5 chip, antigen in solution
T5 construct: Tagged recombinant protein from HEK293 cells; also called recombinant CFHR5
T5 sequence: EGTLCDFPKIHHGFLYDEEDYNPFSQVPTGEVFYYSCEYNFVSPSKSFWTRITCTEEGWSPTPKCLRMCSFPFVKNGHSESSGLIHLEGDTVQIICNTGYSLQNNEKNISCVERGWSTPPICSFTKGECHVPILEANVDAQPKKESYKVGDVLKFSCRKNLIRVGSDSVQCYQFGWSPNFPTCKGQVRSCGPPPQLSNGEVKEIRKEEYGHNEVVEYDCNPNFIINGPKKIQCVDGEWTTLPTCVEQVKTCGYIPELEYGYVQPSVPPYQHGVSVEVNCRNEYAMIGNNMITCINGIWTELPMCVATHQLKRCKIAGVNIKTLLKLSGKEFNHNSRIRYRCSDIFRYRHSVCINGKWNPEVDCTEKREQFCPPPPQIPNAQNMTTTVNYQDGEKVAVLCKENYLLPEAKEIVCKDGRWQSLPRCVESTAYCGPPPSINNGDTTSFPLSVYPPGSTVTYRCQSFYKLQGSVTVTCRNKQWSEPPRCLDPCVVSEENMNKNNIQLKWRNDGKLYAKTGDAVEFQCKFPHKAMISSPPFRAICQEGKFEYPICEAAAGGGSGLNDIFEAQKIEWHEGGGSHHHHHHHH
Protocol: as §1

[6] = molecular target: T6, native human complement factor H (CFH) (human, UniProt P08603 19-1231); assay: as above
T6 construct: Native CFH; also called native CFH; serum-purified CFH
Protocol: as §1

[7] = molecular target: T7, recombinant CFHR1-1-5 (tag-less, full-length mature human complement factor H-related protein 1) (human, UniProt Q03591 19-330); assay: as above
T7 construct: also called recCFHR1
T7 sequence: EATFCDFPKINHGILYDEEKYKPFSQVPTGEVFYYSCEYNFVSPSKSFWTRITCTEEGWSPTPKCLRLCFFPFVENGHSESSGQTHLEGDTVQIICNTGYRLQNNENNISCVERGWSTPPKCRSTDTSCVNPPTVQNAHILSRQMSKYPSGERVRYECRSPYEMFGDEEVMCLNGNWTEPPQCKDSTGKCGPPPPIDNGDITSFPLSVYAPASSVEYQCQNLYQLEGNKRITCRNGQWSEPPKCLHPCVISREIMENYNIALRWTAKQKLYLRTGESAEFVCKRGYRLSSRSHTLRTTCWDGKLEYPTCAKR
Protocol: as §1

binding result [1]: no binding
binding result [2]: no binding
binding result [3]: no binding
binding result [4]: no binding
Kd [5]: 10 nM
Kd [6]: 8 nM
Kd [7]: 0.1 nM
B1: MAB<CFH/CFHR1>M-L20/3 (antibody, V domains shown)
VH: EVLLQQSGPELVKPGASVKIPCKASGYTFTDYNMDWVKQSHGKSLEWIGDINPNNGFTIYNQKFKGKATLTVDKSSSTAYMELRSLTSEDTAIYYCAINWDWFAYWGQGTLVTVSA
VL: DVLMTQTPLSLPVSLGDQASISCRSSQSIVHNNGNTYLEWYLLKPGQSPKLLIYKVSNRFSGVPDRFSGSGSGTDFTLKISRVEAEDLGVYYCFQGSHVPYTFGGGTKLEIKR
notes: Bought monoclonal mouse IgG; also called anti-Complement Factor H, Clone: L20/3; Thermo Scientific cat. no; GAU 020-03-02
